{
  "source": "patent US6365158",
  "key": {"[1]": {"biological_target": "Crotalus durissus terrificus (C.d.t.) venom", "experiment": "ELISA, C.d.t. venom-coated wells, 1:5"}, "[2]": {"biological_target": "Crotalus durissus terrificus (C.d.t.) venom", "experiment": "ELISA, C.d.t. venom-coated wells, 1:25"}, "[3]": {"biological_target": "Crotalus durissus terrificus (C.d.t.) venom", "experiment": "ELISA, C.d.t. venom-coated wells, 1:125"}, "[4]": {"biological_target": "Crotalus durissus terrificus (C.d.t.) venom", "experiment": "ELISA, C.d.t. venom-coated wells, 1:625"}, "[5]": {"biological_target": "Crotalus durissus terrificus (C.d.t.) venom", "experiment": "ELISA, C.d.t. venom-coated wells, 1:3125"}, "[6]": {"biological_target": "Crotalus durissus terrificus (C.d.t.) venom", "experiment": "ELISA, C.d.t. venom-coated wells, IgY 1:62,500"}, "[7]": {"biological_target": "Crotalus durissus terrificus (C.d.t.) venom", "experiment": "ELISA, C.d.t. venom-coated wells, IgY 1:312,500"}, "[8]": {"biological_target": "Crotalus durissus terrificus (C.d.t.) venom", "experiment": "ELISA, wells coated with 5 µg/ml C.d.t. venom, 1:5"}, "[9]": {"biological_target": "Crotalus durissus terrificus (C.d.t.) venom", "experiment": "ELISA, wells coated with 5 µg/ml C.d.t. venom, 1:25"}, "[10]": {"biological_target": "Crotalus durissus terrificus (C.d.t.) venom", "experiment": "ELISA, wells coated with 5 µg/ml C.d.t. venom, 1:125"}, "[11]": {"biological_target": "Crotalus durissus terrificus (C.d.t.) venom", "experiment": "ELISA, wells coated with 5 µg/ml C.d.t. venom, 1:625"}, "[12]": {"biological_target": "Crotalus durissus terrificus (C.d.t.) venom", "experiment": "ELISA, wells coated with 5 µg/ml C.d.t. venom, 1:3125"}, "[13]": {"biological_target": "Crotalus durissus terrificus (C.d.t.) venom", "experiment": "ELISA, wells coated with 5 µg/ml C.d.t. venom, undiluted"}},
  "data": [
    {"substance": "preimmune IgY (antibody)", "values": [
      {"measurement": "absorbance (ELISA) (absorbance at 412 nm)", "setting": "[1]", "value": "< 0"},
      {"measurement": "absorbance (ELISA) (absorbance at 412 nm)", "setting": "[2]", "value": 0.016},
      {"measurement": "absorbance (ELISA) (absorbance at 412 nm)", "setting": "[3]", "value": "< 0"},
      {"measurement": "absorbance (ELISA) (absorbance at 412 nm)", "setting": "[4]", "value": "< 0"},
      {"measurement": "absorbance (ELISA) (absorbance at 412 nm)", "setting": "[5]", "value": "< 0"},
      {"measurement": "absorbance (ELISA) (absorbance at 412 nm)", "setting": "[6]", "value": 0.001},
      {"measurement": "absorbance (ELISA) (absorbance at 412 nm)", "setting": "[7]", "value": 0.01},
      {"measurement": "absorbance (ELISA) (absorbance at 412 nm)", "setting": "[8]", "value": "< 0"},
      {"measurement": "absorbance (ELISA) (absorbance at 412 nm)", "setting": "[9]", "value": 0},
      {"measurement": "absorbance (ELISA) (absorbance at 412 nm)", "setting": "[10]", "value": 0.003},
      {"measurement": "absorbance (ELISA) (absorbance at 412 nm)", "setting": "[11]", "value": 0},
      {"measurement": "absorbance (ELISA) (absorbance at 412 nm)", "setting": "[12]", "value": 0.002},
      {"measurement": "absorbance (ELISA) (absorbance at 412 nm)", "setting": "[13]", "value": 0.003}
    ]}
  ]
}
